For five substances, cytotoxicity against L929 cells (WST-1, with actinomycin D, 24 h), EC50 results are on record in PMC4683619.

For the test, the target named is TNFR1 on L929 cells (mouse (endogenous in L929)) (UniProt P25118).
Sequence of UniProt P25118 (P25118 30-454): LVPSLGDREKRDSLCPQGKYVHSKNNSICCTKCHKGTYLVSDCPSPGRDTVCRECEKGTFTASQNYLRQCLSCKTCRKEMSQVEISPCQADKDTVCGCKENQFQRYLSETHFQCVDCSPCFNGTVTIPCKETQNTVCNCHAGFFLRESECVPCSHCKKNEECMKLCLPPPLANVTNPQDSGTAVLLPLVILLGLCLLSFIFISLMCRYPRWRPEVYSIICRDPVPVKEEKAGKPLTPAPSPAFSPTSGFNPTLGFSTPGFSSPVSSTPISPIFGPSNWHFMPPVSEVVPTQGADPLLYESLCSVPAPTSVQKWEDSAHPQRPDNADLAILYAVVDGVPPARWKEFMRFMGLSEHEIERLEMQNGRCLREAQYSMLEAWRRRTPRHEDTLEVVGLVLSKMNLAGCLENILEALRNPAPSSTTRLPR
“randomly PEGylated scTNF-α (directly PEGylated PEG5K scTNF-α) (ligand)” came in with a cytotoxicity against L929 cells (WST-1, with actinomycin D, 24 h), EC50 of 0.0046 ng/mL.
The substance “PRINT PEG20K scTNF-α (N-terminal mono-PEGylated single-chain TNF-α) (ligand)” yielded a cytotoxicity against L929 cells (WST-1, with actinomycin D, 24 h), EC50 of 0.00062 ng/mL.
On to citraconylated scTNF-α (ligand), for which the cytotoxicity against L929 cells (WST-1, with actinomycin D, 24 h), EC50 turned out to be 0.0076 ng/mL.
As to “PRINT PEG5K scTNF-α (N-terminal mono-PEGylated single-chain TNF-α) (ligand)”, the cytotoxicity against L929 cells (WST-1, with actinomycin D, 24 h), EC50 stood at 0.00058 ng/mL.
The substance “recombinant single-chain TNF-α, His tag cleaved, unmodified (ligand)” had a cytotoxicity against L929 cells (WST-1, with actinomycin D, 24 h), EC50 of 0.00035 ng/mL.
